Laboratory results taken from the supplement of paper PMC7877785.
± gives the uncertainty stated by the source.

Experiment: self-splicing fitness, log relative to wild type (ln ratio); higher = more splicing; Tetrahymena group I intron in knt gene, E. coli kanamycin selection, DiMSum; sequences stand for … in CUCUCU…GGAGGGAAAAGUUAUCAGGCAUGCACCUGGUAGCUAGUCUUUAAACCAAUAGAUUGCAUCGGUUUAAAAGGCAAGACCGUCAAAUUGCGGGAAAGGGGUCAACAGCCGUUCAGUACCAAGUCUCAGGGGAAACUUUGAGAUGGCCUUGCAAAGGGUAUGGUAAUAAGCUGACGGACAUGGUCCUAACCACGCAGCCAAGUCCUAAGUCAACAGAUCUUCUGUUGAUAUGGAUGCAGUUCACAGACUAAAUGUCGGUCGGGGAAGAUGUAUUCUUCUCAUAAGAUAUAGUCGGACCUCUCCUUAAUGGGAGCUAGCGGAUGAAGUGAUGCAACACUGGAGCCGCUGGGAACUAAUUUGUAUGCGAAAGUAUAUUGAUUAGUUUUGGAGUACUCGUGGUCG
Outline: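 Fitness was computed with DiMSum as the error-weighted combination of replicate fold changes, kanamycin versus none, each normalised to wild type. The library randomised all eight intron nucleotides of the P1ex region, with the intron placed in the knt kanamycin-resistance gene on pET-22b(+) in E. coli BL21(DE3). Six replicate transformations were grown overnight at 37°C or 30°C on LB agar with or without 25 μg/mL kanamycin, plus 100 μg/mL carbenicillin, 50 μM IPTG and 0.2% rhamnose. Pooled colonies were amplicon-sequenced on an Illumina HiSeq 2500.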

| Sequence | self-splicing fitness (ln) (30 °C) | self-splicing fitness (ln) (37 °C) |
| --- | --- | --- |
| UUGUAGCAAUAUUACGGGUA | -1.75 ± 0.094 | -0.802 ± 0.099 |
| UUGUAGCAAUAUUACGUACU | -0.641 ± 0.12 | -0.216 ± 0.14 |
| UUGUAGCAAUAUUACGUCCG | -1.24 ± 0.12 | -0.388 ± 0.18 |
| UUGUAGCAAUAUUACGUCCU | -1.48 ± 0.15 | -0.583 ± 0.17 |
| UUGUAGCAAUAUUACGUGCG | -1.77 ± 0.15 | 0.0928 ± 0.14 |
| UUGUAGCAAUAUUACGUGGA | -2.15 ± 0.15 | -0.844 ± 0.12 |
| UUGUAGCAAUAUUACGUUAA | -1.71 ± 0.14 | -2.31 ± 0.21 |
| UUUAAGCAAUAUUACGACUU | -2.03 ± 0.12 | -0.889 ± 0.12 |
| UUUAAGCAAUAUUACGCAGC | -2.88 ± 0.22 | -0.593 ± 0.2 |
| UUUAAGCAAUAUUACGCCAA | -0.939 ± 0.14 | 0.281 ± 0.24 |
| UUUAAGCAAUAUUACGCGAU | -3.34 ± 0.43 | -2.32 ± 0.29 |
| UUUAAGCAAUAUUACGGAUU | -2.78 ± 0.2 | -1.07 ± 0.2 |
| UUUAAGCAAUAUUACGGCGG | -0.0601 ± 0.13 | -0.212 ± 0.18 |
| UUUAAGCAAUAUUACGGGAU | -3.4 ± 0.21 | -1.95 ± 0.2 |
| UUUAAGCAAUAUUACGGGGG | -2.49 ± 0.22 | -2.04 ± 0.18 |
| UUUAAGCAAUAUUACGGUCC | -2.33 ± 0.3 | -1.25 ± 0.25 |
| UUUAAGCAAUAUUACGGUGG | -0.86 ± 0.087 | -0.646 ± 0.12 |
| UUUAAGCAAUAUUACGGUUG | -2.33 ± 0.13 | -1.76 ± 0.14 |
| UUUAAGCAAUAUUACGGUUU | -2.53 ± 0.28 | -1.51 ± 0.22 |
| UUUAAGCAAUAUUACGUACC | -2.05 ± 0.39 | – |
| UUUAAGCAAUAUUACGUCGU | -2.14 ± 0.21 | -2.07 ± 0.32 |

| Sequence | self-splicing fitness (ln) (30 °C) | self-splicing fitness (ln) (37 °C) |
| --- | --- | --- |
| UUUAAGCAAUAUUACGUCUC | -1.11 ± 0.29 | -1.83 ± 0.39 |
| UUUAAGCAAUAUUACGUUAG | -1.75 ± 0.13 | -0.995 ± 0.14 |
| UUUCAGCAAUAUUACGAACC | – | -1.08 ± 0.38 |
| UUUCAGCAAUAUUACGAGUG | -0.489 ± 0.094 | -0.205 ± 0.11 |
| UUUCAGCAAUAUUACGAUGG | -2.15 ± 0.14 | -0.745 ± 0.16 |
| UUUCAGCAAUAUUACGCAUU | -1.93 ± 0.14 | -1.08 ± 0.11 |
| UUUCAGCAAUAUUACGCCCU | -0.619 ± 0.22 | -0.611 ± 0.29 |
| UUUCAGCAAUAUUACGCGCG | -0.107 ± 0.18 | -1.01 ± 0.22 |
| UUUCAGCAAUAUUACGCGUA | -0.663 ± 0.086 | -0.289 ± 0.088 |
| UUUCAGCAAUAUUACGCGUG | -1.02 ± 0.082 | -0.508 ± 0.094 |
| UUUCAGCAAUAUUACGCUAU | -2.73 ± 0.17 | -1.81 ± 0.14 |
| UUUCAGCAAUAUUACGCUGC | -2.48 ± 0.31 | -1.14 ± 0.35 |
| UUUCAGCAAUAUUACGCUUG | -1.3 ± 0.11 | -0.507 ± 0.11 |
| UUUCAGCAAUAUUACGGACC | -1.2 ± 0.4 | – |
| UUUCAGCAAUAUUACGGAGG | -1.53 ± 0.17 | -0.401 ± 0.18 |
| UUUCAGCAAUAUUACGGCCU | -3.87 ± 0.47 | -1.33 ± 0.25 |
| UUUCAGCAAUAUUACGGGCA | -0.321 ± 0.076 | -0.0917 ± 0.085 |
| UUUCAGCAAUAUUACGGUCA | 0.101 ± 0.12 | 0.222 ± 0.13 |
| UUUCAGCAAUAUUACGGUGG | -1.94 ± 0.067 | -0.673 ± 0.075 |
| UUUCAGCAAUAUUACGGUUC | -1.67 ± 0.17 | -1.82 ± 0.27 |
| UUUCAGCAAUAUUACGUGAU | -2.58 ± 0.13 | -1.8 ± 0.18 |

| Sequence | self-splicing fitness (ln) (30 °C) | self-splicing fitness (ln) (37 °C) |
| --- | --- | --- |
| UUUCAGCAAUAUUACGUGGA | -3.32 ± 0.22 | -2.3 ± 0.35 |
| UUUCAGCAAUAUUACGUUAU | -2.94 ± 0.2 | -1.47 ± 0.14 |
| UUUCAGCAAUAUUACGUUGC | -4.04 ± 0.29 | -2.5 ± 0.24 |
| UUUGAGCAAUAUUACGACAA | -1.26 ± 0.16 | -0.94 ± 0.17 |
| UUUGAGCAAUAUUACGACCU | -2.7 ± 0.26 | -1.02 ± 0.34 |
| UUUGAGCAAUAUUACGAGUG | -3.74 ± 0.18 | -2.88 ± 0.2 |
| UUUGAGCAAUAUUACGAUGC | – | -1.81 ± 0.4 |
| UUUGAGCAAUAUUACGCAUC | -3.03 ± 0.28 | -2.39 ± 0.38 |
| UUUGAGCAAUAUUACGCCAG | -2.78 ± 0.36 | -2.12 ± 0.47 |
| UUUGAGCAAUAUUACGCGGA | -3.43 ± 0.35 | -1.28 ± 0.17 |
| UUUGAGCAAUAUUACGGAGA | – | 1.09 ± 0.29 |
| UUUGAGCAAUAUUACGGAGG | -3.18 ± 0.32 | -2.33 ± 0.46 |
| UUUGAGCAAUAUUACGGCGU | -3.7 ± 0.26 | -1.9 ± 0.2 |
| UUUGAGCAAUAUUACGGGAC | -3.43 ± 0.34 | -2.12 ± 0.27 |
| UUUGAGCAAUAUUACGGGGG | -1.96 ± 0.38 | – |
| UUUGAGCAAUAUUACGGGUA | -2.8 ± 0.46 | – |
| UUUGAGCAAUAUUACGGGUG | -4.1 ± 0.3 | -2.22 ± 0.21 |
| UUUGAGCAAUAUUACGUAGA | -1.7 ± 0.22 | -0.802 ± 0.24 |
| UUUGAGCAAUAUUACGUCCC | -2.9 ± 0.22 | -2.15 ± 0.33 |
| UUUGAGCAAUAUUACGUCUC | -3.52 ± 0.29 | -2.7 ± 0.33 |
| UUUGAGCAAUAUUACGUGAG | -1.35 ± 0.11 | 0.29 ± 0.14 |

| Sequence | self-splicing fitness (ln) (30 °C) | self-splicing fitness (ln) (37 °C) |
| --- | --- | --- |
| UUUGAGCAAUAUUACGUGCG | – | -1.29 ± 0.25 |
| UUUGAGCAAUAUUACGUGUA | -3.76 ± 0.35 | -2.78 ± 0.28 |
| UUUGAGCAAUAUUACGUUGC | -2.68 ± 0.34 | -2.29 ± 0.36 |
| UUUUAGCAAUAUUACGAAAC | – | -2.4 ± 0.49 |
| UUUUAGCAAUAUUACGAACA | – | -0.949 ± 0.48 |
| UUUUAGCAAUAUUACGAAUG | -1.04 ± 0.077 | -0.0853 ± 0.096 |
| UUUUAGCAAUAUUACGACCU | – | -1.36 ± 0.44 |
| UUUUAGCAAUAUUACGACGC | -2.17 ± 0.31 | -1.56 ± 0.28 |
| UUUUAGCAAUAUUACGAGAU | – | -1.25 ± 0.4 |
| UUUUAGCAAUAUUACGAUGA | 0.0426 ± 0.16 | -0.186 ± 0.2 |
| UUUUAGCAAUAUUACGAUGG | -1.32 ± 0.19 | -1.22 ± 0.2 |
| UUUUAGCAAUAUUACGCAAG | -1.08 ± 0.15 | -1.14 ± 0.21 |
| UUUUAGCAAUAUUACGCCCU | -2.16 ± 0.35 | -0.426 ± 0.28 |
| UUUUAGCAAUAUUACGGGUU | – | -2.26 ± 0.29 |
| UUUUAGCAAUAUUACGGUGU | -3.34 ± 0.38 | – |
| UUUUAGCAAUAUUACGGUUG | -1.77 ± 0.15 | -0.623 ± 0.23 |
| UUUUAGCAAUAUUACGUACU | – | 0.399 ± 0.37 |
| UUUUAGCAAUAUUACGUGUA | -2.96 ± 0.27 | -1.84 ± 0.17 |
